T1: SA2 (STAG2) (UniProt Q8N3U4 1-1231)
T1 sequence: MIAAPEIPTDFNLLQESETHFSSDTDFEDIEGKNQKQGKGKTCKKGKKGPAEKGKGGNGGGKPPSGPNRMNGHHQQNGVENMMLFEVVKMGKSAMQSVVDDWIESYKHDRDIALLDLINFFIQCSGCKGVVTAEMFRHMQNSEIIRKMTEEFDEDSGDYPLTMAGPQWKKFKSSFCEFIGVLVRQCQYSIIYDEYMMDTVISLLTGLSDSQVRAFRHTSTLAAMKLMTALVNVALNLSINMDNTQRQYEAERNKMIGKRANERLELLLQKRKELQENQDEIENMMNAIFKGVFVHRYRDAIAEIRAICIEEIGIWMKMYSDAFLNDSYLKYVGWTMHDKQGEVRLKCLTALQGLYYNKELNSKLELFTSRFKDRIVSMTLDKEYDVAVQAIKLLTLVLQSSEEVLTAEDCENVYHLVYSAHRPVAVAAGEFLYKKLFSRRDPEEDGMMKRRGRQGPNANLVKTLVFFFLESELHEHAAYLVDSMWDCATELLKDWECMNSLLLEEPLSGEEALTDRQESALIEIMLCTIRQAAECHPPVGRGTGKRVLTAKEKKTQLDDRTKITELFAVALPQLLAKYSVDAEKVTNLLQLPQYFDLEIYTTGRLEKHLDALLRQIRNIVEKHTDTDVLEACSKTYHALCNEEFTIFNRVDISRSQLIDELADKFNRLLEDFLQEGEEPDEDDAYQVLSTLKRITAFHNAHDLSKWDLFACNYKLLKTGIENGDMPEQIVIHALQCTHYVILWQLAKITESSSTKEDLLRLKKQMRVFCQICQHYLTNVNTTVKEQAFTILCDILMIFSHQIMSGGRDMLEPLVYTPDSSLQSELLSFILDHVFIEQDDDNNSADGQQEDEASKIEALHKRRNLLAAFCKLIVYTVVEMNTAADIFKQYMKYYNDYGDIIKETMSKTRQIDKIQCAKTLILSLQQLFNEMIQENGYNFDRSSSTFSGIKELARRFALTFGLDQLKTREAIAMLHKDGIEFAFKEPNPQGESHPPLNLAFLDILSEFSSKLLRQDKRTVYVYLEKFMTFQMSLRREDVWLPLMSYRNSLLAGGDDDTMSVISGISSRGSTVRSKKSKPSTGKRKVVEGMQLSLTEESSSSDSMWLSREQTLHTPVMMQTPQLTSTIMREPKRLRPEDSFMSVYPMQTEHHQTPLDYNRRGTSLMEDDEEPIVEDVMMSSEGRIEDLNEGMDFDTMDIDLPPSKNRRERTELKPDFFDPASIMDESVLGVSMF

T2: SA1 (STAG1) (UniProt Q8WVM7 1-1258)
T2 sequence: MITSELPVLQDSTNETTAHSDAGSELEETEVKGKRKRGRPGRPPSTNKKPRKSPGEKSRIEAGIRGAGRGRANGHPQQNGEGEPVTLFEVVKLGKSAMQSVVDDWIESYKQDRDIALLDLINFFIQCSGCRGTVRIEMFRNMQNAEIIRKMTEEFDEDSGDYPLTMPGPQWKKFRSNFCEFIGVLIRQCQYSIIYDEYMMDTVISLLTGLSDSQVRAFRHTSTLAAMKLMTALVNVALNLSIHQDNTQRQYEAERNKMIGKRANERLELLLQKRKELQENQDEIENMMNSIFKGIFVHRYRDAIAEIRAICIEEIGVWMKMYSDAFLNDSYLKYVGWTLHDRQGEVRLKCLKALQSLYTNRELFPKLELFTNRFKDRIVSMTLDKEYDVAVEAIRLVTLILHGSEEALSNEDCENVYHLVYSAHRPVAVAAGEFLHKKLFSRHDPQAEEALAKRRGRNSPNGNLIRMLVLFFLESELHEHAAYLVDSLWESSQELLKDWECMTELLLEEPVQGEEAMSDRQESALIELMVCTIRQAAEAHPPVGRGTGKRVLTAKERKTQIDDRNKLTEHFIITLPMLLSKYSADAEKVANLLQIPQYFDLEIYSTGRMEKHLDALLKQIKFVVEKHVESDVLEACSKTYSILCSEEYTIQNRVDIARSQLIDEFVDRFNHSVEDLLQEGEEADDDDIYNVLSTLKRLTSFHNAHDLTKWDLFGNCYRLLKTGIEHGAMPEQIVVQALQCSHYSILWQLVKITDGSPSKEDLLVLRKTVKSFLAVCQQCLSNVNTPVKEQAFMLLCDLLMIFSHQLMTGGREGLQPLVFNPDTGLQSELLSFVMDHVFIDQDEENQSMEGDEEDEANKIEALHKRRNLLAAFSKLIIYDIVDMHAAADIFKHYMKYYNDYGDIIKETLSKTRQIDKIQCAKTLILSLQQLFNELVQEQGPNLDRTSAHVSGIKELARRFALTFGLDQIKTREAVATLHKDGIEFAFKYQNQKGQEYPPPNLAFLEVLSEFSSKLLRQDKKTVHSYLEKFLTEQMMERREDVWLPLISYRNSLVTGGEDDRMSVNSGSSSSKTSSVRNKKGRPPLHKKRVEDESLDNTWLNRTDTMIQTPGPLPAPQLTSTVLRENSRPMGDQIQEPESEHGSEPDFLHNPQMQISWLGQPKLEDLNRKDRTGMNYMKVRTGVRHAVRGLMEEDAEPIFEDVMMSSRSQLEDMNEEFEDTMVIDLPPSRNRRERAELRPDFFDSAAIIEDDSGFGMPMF

B1: Model R-loop (mixed)
RNA: GCAGCUGGCACGACAGGUAUGAAUC
DNA 1: GCCAGGGACGAGGTGAACCTGCAGGTGGGCGGCTACTACTTAGATGTCATCCGAGGCTTATTGGTAGAATTCGGCAGCGTCATGCGACGGC
DNA 2: GCCGTCGCATGACGCTGCCGAATTCTACCACGCGATTCATACCTGTCGTGCCAGCTGCTTTGCCCACCTGCAGGTTCACCTCGTCCCTGGC
B2: 66 nt RNA-2 (ssRNA)
RNA: UCGAAUUCUUGUUCUACAUCAACACCCACACACCCAACCACUCACCCUUACACUGUACGGAUCCAG
B3: 66 nt RNA-1 (ssRNA)
RNA: CUGGAUCCGUACAGUGUAAGGGUGAGUGGUUGGGUGUGUGGGUGUUGAUGUAGAACAAGAAUUCGA
B4: RNA:DNA hybrid (25 bp) (DNA:RNA)
RNA: GCAGCUGGCACGACAGGUAUGAAUC
DNA: GATTCATACCTGTCGTGCCAGCTGC
B5: RNA:DNA hybrid (45 bp) (DNA:RNA)
RNA: CUGGAUCCGUACAGUGUAAGGGUGAGUGGUUGGGUGUGUGGGUGU
DNA: ACACCCACACACCCAACCACTCACCCTTACACTGTACGGATCCAG

How the values were obtained:
Test in all cases: fluorescence anisotropy
[1] = molecular target: EWSR1 (UniProt Q01844 1-656)
Chain of EWSR1 (Q01844 whole entry): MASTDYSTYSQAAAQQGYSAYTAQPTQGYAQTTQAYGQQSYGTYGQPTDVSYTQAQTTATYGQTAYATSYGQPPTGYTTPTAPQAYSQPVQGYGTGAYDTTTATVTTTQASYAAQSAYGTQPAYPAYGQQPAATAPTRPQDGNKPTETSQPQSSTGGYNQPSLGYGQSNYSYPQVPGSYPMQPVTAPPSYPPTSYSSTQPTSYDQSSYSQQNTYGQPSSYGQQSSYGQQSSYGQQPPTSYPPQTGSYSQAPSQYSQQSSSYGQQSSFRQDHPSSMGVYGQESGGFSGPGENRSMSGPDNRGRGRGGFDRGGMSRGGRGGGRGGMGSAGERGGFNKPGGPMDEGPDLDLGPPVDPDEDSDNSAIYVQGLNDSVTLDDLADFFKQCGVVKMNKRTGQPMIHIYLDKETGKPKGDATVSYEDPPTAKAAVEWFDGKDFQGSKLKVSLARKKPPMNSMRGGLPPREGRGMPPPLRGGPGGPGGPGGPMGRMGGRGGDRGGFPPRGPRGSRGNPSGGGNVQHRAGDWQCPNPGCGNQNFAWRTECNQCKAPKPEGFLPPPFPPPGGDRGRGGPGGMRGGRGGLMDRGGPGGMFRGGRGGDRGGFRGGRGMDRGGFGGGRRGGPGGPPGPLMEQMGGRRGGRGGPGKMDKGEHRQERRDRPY

[2] = molecular target: T1, SA2 (STAG2)
[3] = molecular target: T2, SA1 (STAG1)

Binder	Kd [1] [nM]	Kd [2] [nM]	Kd [3] [nM]
B1	28.6 ± 0.8	36 ± 4	38.4 ± 8.7
GCAGCUGGCACGACAGGUAUGAAUC (ssRNA) [25 nt RNA (R-loop oligo)]	134.2 ± 0.04	251 ± 3.2	164 ± 37.4
B2		5.1 ± 0.6	3 ± 0.1
B3	35.1 ± 1.8	7.2 ± 2.5	3.2 ± 0.3
B4		43.3 ± 5.6	58.6 ± 1.5
B5	27.7 ± 4.1	31.7 ± 1.5	44 ± 5.9
CUGGAUCCGUACAGUGUAAGGGUGAGUGGUUGGGUGUGUGGGUGU (ssRNA) [45 nt RNA]		11.4 ± 1.2	6 ± 0.6

Source: PMC7261166
